Results reported in patent publication US20050154187A1.

Assays:
[1] = biological target: soluble VEGF receptor KDR (sKDR) (UniProt P35968); assay: ELISA, plate-coated sKDR, detection with DHFR-specific mAb
[2] = biological target: soluble VEGF receptor Flt-1 (sFlt-1) (UniProt P17948); assay: ELISA, plate-coated sFlt-1, detection with DHFR-specific mAb

Sequence of dihydrofolate reductase (DHFR), negative control protein (P00375 1-186 limits assumed): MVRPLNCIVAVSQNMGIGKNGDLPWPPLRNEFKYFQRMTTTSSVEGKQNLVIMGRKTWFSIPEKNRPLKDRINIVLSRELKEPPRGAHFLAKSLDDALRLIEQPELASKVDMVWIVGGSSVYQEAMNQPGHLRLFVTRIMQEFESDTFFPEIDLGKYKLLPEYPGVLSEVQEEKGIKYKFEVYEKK

Substance: dihydrofolate reductase (DHFR), negative control protein (from UniProt P00375 1-186) (enzyme)
- OD492 nm [1]: 0.074 OD492 nm
- OD492 nm [2]: 0.088 OD492 nm
